Ten molecules from patent US20110008369A1 (Merck Sharp & Dohme, published 2011) can be followed below.

In assay [1] the target is T1, human PD-1 (Programmed Cell Death 1), expressed on cells (human, UniProt Q15116 25-288).
T1 construct: also called human PD-1 on 293 cells
The experiment in a line: inhibition of recombinant PD-L1/Fc binding to activated human CD4+ cells by 0.2 ug/ml IgG, 37 C (mean of 2). The method, then: (§1) 293 cells were transfected to express PD-1 on their cell membranes. Human CD4⁺ cells were activated by incubation with anti-CD3/anti-CD28 beads (approximately 1 bead: 1-2 cells) for 48-72 hours at 37° C. Rhesus CD4⁺ cells (2×10⁶ cells/mL) were activated by incubation in plates coated with 1 μg/mL anti-CD3/anti-CD28 for 24-72 hours at 37° C.

Assay [2] has as its target T2, rhesus PD-1 naturally expressed on activated rhesus CD4+ cells (rhesus macaque, UniProt B0LAJ2 25-288). Description: inhibition of recombinant PD-L1/Fc binding to activated rhesus CD4+ cells by 0.2 ug/ml IgG, 37 C (mean of 2). The protocol: as §1
Assay [3] deals with T3, homologous Fc (R&D Systems), Fc control surface (human, UniProt P01857-1 100-330 = IgG part, limits assumed).
T3 construct: domain: Fc; Counter-screen surface in the SPR assay; also called human Fc portion
The experiment in a line: SPR (Biacore 2000), Fc immobilised on a CM5 chip. The text has this: Biacore® instruments incorporate microfluidics technology and surface plasmon resonance (SPR). The angle of polarized light reflecting from the side of a gold-coated sensor opposite to the solution phase is a function of the evanescent wave extending into the solution phase and sensitive to the refractive index near that interface. This refractive index is proportional to the mass density of adsorbates (e.g., an antigen or antibody) near the sensor chip interface, and reported in Response Units. […] Time-resolved signals were acquired from all surfaces simultaneously, and the signal from the blank control surface was subtracted as a negative control.

Assay [4] deals with T2, rhesus PD-1 naturally expressed on …. The experiment in a line: cell binding; 1.0 ug/ml IgG on activated rhesus CD4+ cells, 37 C. The protocol: as §1
Assay [5] deals with T1, human PD-1 (Programmed Cell Death 1), …. Description: cell binding; 0.2 ug/ml IgG on activated human CD4+ cells, 37 C. The method, then: as §1
Assay [6] shares this target. The experiment in a line: inhibition of recombinant PD-L1/Fc binding to 293 cells expressing human PD-1 by 20 ug/ml IgG, 4 C. The method, then:
as §1

Assay [7] has as its target T4, recombinant human PD-1/Fc fusion protein (R&D Systems) (human, UniProt Q15116 25-167).
T4 construct: Bought protein; also called immobilized PD-1; not shown: human Fc portion of the bought fusion protein
The experiment in a line: solution-phase ELISA of IgG with PD-1/Fc; mean ± standard error of the mean. The method, then:
High-binding 96-well ELISA plates were coated with 50 μL 2 μg/mL PD-1/Fc overnight. After washing and blocking, 50 μL of each PD-1/Fc: IgG mixture was transferred to the ELISA plate, incubated for 30 minutes, washed, incubated with goat anti-mouse antibody conjugated to HRP (human absorbed) for one hour, washed, developed with 10-Acetyl-3,7-dihydroxyphenoxazine ([…]) for three minutes, and read on a fluorescent plate reader. All incubations occurred at room temperature. Data were analyzed as described in K. High et al. Several replicates were conducted on multiple plates and multiple days and analyzed independently to determine a range of experimental equilibrium affinity Kd values.

Assay [8] addresses T4, recombinant human PD-1/Fc fusion …. The experiment in a line: SPR (Biacore T100), monomeric Fab over covalently immobilised PD-1/Fc; range of fit Kd. From the text: Fractions from the purification column were collected and tested in the Caliper LabChip® system. Only fractions containing pure monomeric Fabs were selected for SPR analysis. Beginning with concentrations determined from the Caliper LabChip®, dilution series were made for each Fab and tested on a Biacore® T100 with the standard kinetic affinity wizard against covalently immobilized PD-1/Fc fusion protein.

T4 sequence (Q15116 25-167 limits assumed): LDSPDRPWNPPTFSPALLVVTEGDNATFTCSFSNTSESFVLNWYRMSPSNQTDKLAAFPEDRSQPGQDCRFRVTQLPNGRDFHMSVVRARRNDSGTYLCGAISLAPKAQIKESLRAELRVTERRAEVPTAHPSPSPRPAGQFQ
T2 sequence (B0LAJ2 entry or part of it limits assumed): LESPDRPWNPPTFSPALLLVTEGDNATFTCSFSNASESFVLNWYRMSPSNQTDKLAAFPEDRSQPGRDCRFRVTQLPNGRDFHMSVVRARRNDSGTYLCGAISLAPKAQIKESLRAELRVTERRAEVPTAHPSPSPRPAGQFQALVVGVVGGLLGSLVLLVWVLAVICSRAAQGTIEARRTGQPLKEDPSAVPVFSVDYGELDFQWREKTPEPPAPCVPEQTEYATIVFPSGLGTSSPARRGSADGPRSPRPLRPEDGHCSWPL
T1 sequence (Q15116 25-288 limits assumed): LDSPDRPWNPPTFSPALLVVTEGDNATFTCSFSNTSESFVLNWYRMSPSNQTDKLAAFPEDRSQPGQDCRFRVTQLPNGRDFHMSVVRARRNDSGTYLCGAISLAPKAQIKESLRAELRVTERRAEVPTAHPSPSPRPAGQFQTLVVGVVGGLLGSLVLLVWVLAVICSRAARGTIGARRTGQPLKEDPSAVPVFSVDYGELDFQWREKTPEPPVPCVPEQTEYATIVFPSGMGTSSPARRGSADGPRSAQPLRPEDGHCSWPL

B1: mAb 7G3 (antibody, V domains shown)
VH: QVQLQQSGTELVRPGVSVKISCKGSGYSFTDYALHWMKQSHAKSLEWIGVISTHYGDTVYNQRFKGKATMTVDKSSSTAYMELARLTSEDSAIYYCAREGYGSLFYFDQWGQGTPLTVS
VL: CLMTQTPLSLPVSLGDQASISCRSSQTIVHSDGNTYLEWYLQKSGQSPKLLIYKVSNRFSGVPDRFSGSGSGTDFTLKISRVEAEDLGVYYCFQGSHVPYTFGGGTRLEIRR
notes: Murine IgG from a hybridoma
On to B1, for which the figures for the “% inhibition” value in assay [1], in assay [2] and in assay [6] were 57.8%, 25.5% and 92.7%, respectively. For the same molecule, the binding result in assay [3] was “no binding (tested: 5 ug/mL (hybridoma supernatant))”. Further, the values for the MFI in assay [4] and in assay [5] were 655 MFI and 129 MFI, respectively.

B2: mAb 20B3.1 (antibody, V domains shown)
VH: EVKLVESGGGLVKPGGSLKLSCAASGFTFSSFGMSWVRQTPEKRLEWVATISGGGSNTYYPDSVKGRFTISRDNAKNNLYLQMTSLTSEDTALYYCTRIYDVAWFAYWGQGTLVTVS
VL: not shown
notes: Murine IgG from a hybridoma
On to B2, for which the “% inhibition” value in assay [1] came out at 59.6%; in assay [2] it was 75.3%; in assay [6] it was 98.2%. For the same molecule, in assay [3], the binding result was “no binding (tested: 5 ug/mL (hybridoma supernatant))”. The MFI stood at 1240 MFI in assay [4] and 154 MFI in assay [5].

B3: mAb 1G7 (antibody, V domains shown)
VH: EIQLQQSGPELVKPGASVKVSCKASGYAFTSYNIYWVKQSHGKSLEWIGYIDLYNGDTSYNEKFKGKATLTVDKSASTAYMHLNSLTSEDSAVYYCSREGRLSFDYWGQGTLVTVSA
VL: DIVLTQSPASLAVSLGQRATISCRASESVDSYGNSFMNWYQQKPGQPLKLLIYLASNLDSGVPARFSGSGSGTDFSLTIDPVEADDPATYYCQQNNEVPLTFGAGTKLELKR
notes: Murine IgG from a hybridoma
As for B3, the “% inhibition” value in assay [1] is 74.3%; in assay [2], 56.5%; in assay [6], 98.8%. In assay [3], the binding result was “no binding (tested: 5 ug/mL (hybridoma supernatant))”. The MFI in assay [4] turned out to be 812 MFI; in assay [5] it was 137 MFI.

B4: mAb 1.8A10 (antibody, V domains shown)
VH: EVQLVESGGGLVKPGGSLKLSCAASGFTFSNYDMSWIRQTPEKRLEWVAYISGGGGNTYYPDTLKGRFTISRDNAKNTLYLQMSSLKSEDTAMFYCVRISLTGIFDYWGQGTTLTVSS
VL: DVLMTQTPLSLPVSLGDQASISCRSSQSIVQSNGNTYLEWYLQKPGQSPKLLIYKVSNRFSGVPDRFSGSGSGTDFTLKISRVEAEDLGVYYCFQGSHVPWTFGGGTKLEIKR
notes: Murine IgG from a hybridoma
In the case of B4, the “% inhibition” value in assay [1] worked out at 51.7%; in assay [2] it was 24%; in assay [6], 99.4%. Moreover, the binding result in assay [3] was “no binding (tested: 5 ug/mL (hybridoma supernatant))”. Also, the MFI turned out to be 310 MFI in assay [4] and 129 MFI in assay [5]. In assay [7], the Kd was 0.44 nM.

B5: monomeric Fab of mAb 1.8A10 (Fab, V domains shown)
VH: B4 VH
VL: B4 VL
notes: also called 1.8A10 Fab
Turning to B5, the Kd in assay [8] lay within 34 to 43 nM.

B6: monomeric Fab of mAb 3H4 (Fab, V domains shown)
VH: QIQLQQSGPELVKPGASVKISCKASGYTFTDYYINWVKQKPGQGLEWIGWIYPGSVNTKYNEKFRGKATLTVDTSSSTAYIQLSGLTSEDTAVYFCARYSNWFFDVWGAGTAVTVS
VL: DIVMTQSPSSLSASLGERVSLTCRASQEISGYLSWLQQKPDGTIKRLIYAASTLDSGVPKRFSGSRSGSDYSLSISSLESEDFADYYCLQYASYPYTFGGGTKLEIKR
notes: also called 3H4 Fab
With B6, in assay [8], the Kd lay in the range of 63 to 77 nM.

B7: mAb 3H4 (antibody, V domains shown)
VH: B6 VH
VL: B6 VL
notes: Murine IgG from a hybridoma
Take B7: in assay [3], the binding result is “no binding (tested: 5 ug/mL (hybridoma supernatant))”. For the same molecule, the Kd in assay [7] was determined as 0.011 nM. The molecule also gave an MFI in assay [5] of 130 MFI.

B8: monomeric Fab of mAb 1B8 (Fab, V domains shown)
VH: EVQLVLSGGGFVQPGGSLKLSCAASGFTFSSYAMSWVRQNPERRLVWVATITGGGRNTYYPDSVKGRFTISRDNAKNTLYLQMSSLRSEDTAMYYCTRQGYDGYTWFAYWGQGTLVTVS
VL: not shown
notes: also called 1B8 Fab
As to B8, the Kd in assay [8] is 5.3 to 7 nM.

B9: mAb 1B8 (antibody, V domains shown)
VH: B8 VH
VL: not shown
notes: Murine IgG from a hybridoma; also called murine 1B8; fully murine 1B8 mAb
For the molecule B9, the “% inhibition” value in assay [1] amounted to 82.1%; in assay [2], 82.3%; in assay [6], 97.6%. In addition, the binding result in assay [3] is “no binding (tested: 5 ug/mL (hybridoma supernatant))”. Besides, the MFI in assay [4] turned out to be 1190 MFI; in assay [5], 145 MFI. In assay [7], the Kd is 0.03 nM.

B10: mAb 2.3A9 (antibody, V domains shown)
VH: QVQLQQSDAELVKPGTSVKISCKASGYTFTDHAIHWLKQEPDQGLEWIGYISPGYGDIEYNEKFKGKATLTADKSSSTAYMQLSSLTSEDSAVYFCKVTTGYWGQGTTLTVS
VL: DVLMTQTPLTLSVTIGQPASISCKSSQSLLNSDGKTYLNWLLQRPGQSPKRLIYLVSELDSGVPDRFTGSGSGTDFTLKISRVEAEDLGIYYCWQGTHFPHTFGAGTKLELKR
notes: Murine IgG from a hybridoma
For the molecule B10, the binding result in assay [3] is recorded as “no binding (tested: 5 ug/mL (hybridoma supernatant))”. The same molecule showed an MFI in assay [5] of 134 MFI.
